assay: soluble on expression in E. coli; label from the status in PepcDB or PDB records

Sequence	soluble on expression in E. coli
MGHHHHHHHHHHSSGHIDDDDKHMGSMAELKYISGFGNECSSEDPRCPGSLPEGQNNPQVCPYNLYAEQLSGSAFTCPRSTNKRSWLYRILPSVSHKPFESIDEGHVTHNWDEVDPDPNQLRWKPFEIPKASQKKVDFVSGLHTLCGAGDIKSNNGLAIHIFLCNTSMENRCFYNSDGDFLIVPQKGNLLIYTEFGKMLVQPNEICVIQRGMRFSIDVFEETRGYILEVYGVHFELPDLGPIGANGLANPRDFLIPIAWYEDRQVPGGYTVINKYQGKLFAAKQDVSPFNVVAWHGNYTPYKYNLKNFMVINSVAFDHADPSIFTVLTAKSVRPGVAIADFVIFPPRWGVADKTFRPPYYHRNCMSEFMGLIRGHYEAKQGGFLPGGGSLHSTMTPHGPDADCFEKASKVKLAPERIADGTMAFMFESSLSLAVTKWGLKASRCLDENYHKCWEPLKSHFTPNSRNPAEPN	soluble
MGHHHHHHHHHHSSGHIDDDDKHMKNKKDKGLLSGKLTPAQSKNPAKNELYLVEGDSAGGSAKQGRDRKFQAILPLRGKVINTAKAKMADILKNEEINTMIYTIGAGVGADFSIEDANYDKIIIMTDADTDGAHIQTLLLTFFYRYMRPLVEAGHVYIALPPLYKMSKGKGKKEEVAYAWTDGELEELRKQFGKGATLQRYKGLGEMNADQLWETTMNPETRTLIRVTIEDLARAERRVNVLMGDKVEPRRKWIEDNVKFTLEEATVF	soluble
MGHHHHHHMRSYEKSKTAFKEAQKLMPGGVNSPVRAFKSVDMDPIFMERGKGSKIFDIDGNEYIDYVLSWGPLILGHTNDRVVESLKKVAEYGTSFGAPTEVENELAKLVIDRVPSVEIVRMVSSGTEATMSALRLARGYTGRNKILKFEGCYHGHGDSLLIKAGSGVATLGLPDSPGVPEGIAKNTITVPYNDLESVKLAFQQFGEDIAGVIVEPVAGNMGVVPPQEGFLQGLRDITEQYGSLLIFDEVMTGFRVDYNCAQGYFGVTPDLTCLGKVIGGGLPVGAYGGKAEIMEQIAPSGPIYQAGTLSGNPLAMTAGLETLKQLTPDSYKNFIKKGDRLEEGISKAAEAHGIPHTFNRAGSMIGFFFTNEPVINYETAKASDLKLFASYYKGMANEGVFLPPSQFEGLFLSTAHTDEDIENTIQAAEKVFAEISRR	soluble
MGHHHHHHSHATWHSALRGDAGLDSCRHVDSKCSGLHSSYRNLGTRQCPFSFLAEVMGKEPHFHSCLQVSHEFALNFNPSNPYCAGIQGIVDAYRQALPQVRLYGPTNFAPIINHVARFAQYFMLLLLTDGAVTDVEATREAVVRASNLPMSVIIVGVGGADFEAMEQLDADGGPLHTRSGQAAARDIVQFVPYRRFQNAPREALAQTVLAEVPTQLVSYFRAQGWAPLKPLPPSAKDPAQAPQA	not soluble
MGHHHHHHSHIKKNNHHEENISSKMKGLNGKVSDLEKAAAQRKAKLDENSAFLQFNWKADVVESWIGEKENSLKTDDYGRDLSSVQTLLTKQETFDAGLQAFQQEGIANITALKDQLLAAKHVQSKAIEARHASLMKRWSQLLANSAARKKKLLEAQSHFRKVEDLFLTFAKKASAFNSWFENAEEDLTDPVRCNSLEEIKALREAHDAFRSSLSSAQADFNQLAELDRQIKSFRVASNPYT	not soluble
MGHHHHHHSHKDDTDPGQLKGLSAHTHVELPYYSKFILIAAYLASYNPARTDKRFFLKHHGKIKKTNFLKKHEKTSNHLLGPKPFPLDRLLAILYSIVDSRVAPTANIFSQITSLVTLQLLTLVGHDDQLDGPKYKCTVSLDFIRAIARTVNFDIIKYLYDFL	not soluble
MGHHHHHHSHKPGLSTSIPLRMSSYTFKRPVTRITPHPGNEVRYHQWEESLEKPQQVCWQRRLQGLQAYSSAGELSSTLDLANTLQKLVPSYTGGSLLEDLASGLEHSCPMPHLACSSDAVEIIPAEGVGISQLLCKQFLVTEEDIRKQEGKVKTVRERLAIALIADGLANEAEKVRDQEGCPEKR	not soluble
MGHHHHHHSHMAASRNGFEAVEAEGSAGCRGSSGMEVVLPLDPAVPAPLCPHGPTLLFVKVTQGKEETRRFYACSACRDRKDCNFFQWEDEKLSGARLAAREAHNRRCQPPLSRTQCVERYLKFIELPLTQRKFCQTCQQLLLPDDWGQHSEHQVLGNVSITQLRRPSQLLYPLENKKTNAQYLFADRSCQFLVDLLSALGFRRVLCVGTPRLHELIKLTASGDKKSNIKSLLLDIDFRYSQFYMEDSFCHYNMFNHHFFDGKTALEVCRAFLQEDKGEGIIMVTDPPFGGLVEPLAITFKKLIAMWKEGQSQDDSHKELPIFWIFPYFFESRICQFFPSFQMLDYQVDYDNHALYKHGKTGRKQSPVRIFTNIPPNKIILPTEEGYRFCSPCQRYVSLENQHCELCNSCTSKDGRKWNHCFLCKKCVKPSWIHCSICNHCAVPDHSCEGPKHGCFICGELDHKRSTCP	soluble
MGHHHHHHSHMALVTVQRSPTPSTTSSPCASEADSGEEECRSQPRSISESFLTVKGAALFLPRGNGSSTPRISHRRNKHAGDLQQHLQAMFILLRPEDNIRLAVRLESTYQNRTRYMVVVSTNGRQDTEESIVLGMDFSSNDSSTCTMGLVLPLWSDTLIHLDGDGGFSVSTDNRVHIFKPVSVQAMWVDRDSRNKHCDVLLVEE	not soluble
MGHHHHHHSHMANSAGSMANSAGSLPTTTIGSFPQSREVRKYRADWKNKRITDEAYETFLKNEIARWIKIQEDIGLDVLVHGEFERNDMVEFFGEKLQGFLVTKFGWVQSYGSRAVKPPIIYGDVKWTAPLTVDETVYAQSLTDKPVKGMLTGPVTILNWSFERVDLPRKVVQDQIALAINEEVLALEAAGIKVIQVDEPALREGLPLRSEYHEQYLKDAVLSFKLATSSVRDETQIHTHMCYSQFGQIIHAIHDLDADVISIETSRSHGDLIKDFEDINYDLGIGLGVYDIHSPRIPTKEEITTAINRSLQQIDRSLFWVNPDCGLKTRKEEEVKDALTVLVNAVKA	not soluble
MGHHHHHHSHMASLFRSYLPAIWLLLSQLLRESLAAELRGCGPRFGKHLLSYCPMPEKTFTTTPGGWLLESGRPKEMVSTSNNKDGQALGTTSEFIPNLSPELKKPLSEGQPSLKKIILSRKKRSGRHRFDPFCCEVICDDGTSVKLCT	not soluble
MGHHHHHHSHMATNAKPVYKRILLKLSGEALQGTEGFGIDASILDRMAQEIKELVELGIQVGVVIGGGNLFRGAGLAKAGMNRVVGDHMGMLATVMNGLAMRDALHRAYVNARLMSAIPLNGVCDSYSWAEAISLLRNNRVVILSAGTGNPFFTTDSAACLRGIEIEADVVLKATKVDGVFTADPAKDPTATMYEQLTYSEVLEKELKVMDLAAFTLARDHKLPIRVFNMNKPGALRRVVMGEKEGTLITE	soluble
MGHHHHHHSHMAVASTSTSDGMLTLDLIQEEDPSPEEPTSCAESFRVDLDKSVAQLAGSRRRADSDRIQPSADRASSLSRPWEKTDKGATYTPQAPKKLTPTEKGRCASLEEILSQRDAASARTLQLRAEEPPTPALPNPGQLSRIQDLVARKLEETQELLAEVQGLGDGKRKAKDPPRSPPDSESEQLLLETERLLGEASSNWSQAKRVLQEVRELRDLYRQMDLQTPDSHLRQTTPHSQYRKSLM	not soluble
MGHHHHHHSHMCSALVVAAPHSGSGKTTVTAAIARYHRVQGRKVTVFKVGPDFIDPMILRQASGELVYQLDLWLVGEQGCRALLHRAAMDSDLILIEGVMGLFDGTPSSADLAKYFNIPVLGVIDAKAMAQTFAAVTFGLAKFCEDLPFSGVIANRVNTERHAELLSVSLPKAFRFYGRIPKDDTITLPERHLGLVQAQELSDIDVQLDKAASHIANTG	not soluble
MGHHHHHHSHMEKSELKPAGVFHFFNEICQVPRPSKKEEKMIAYLKAFGEKHNLETKVDEAGNVLIKKPATPGKENLKTVILQSHVDMVCEKNNDTDHDFLTDPIETEIDGEWMKAKGTTLGADNGIGVATELAILADDSIEHGPIECLFTVDEETGLTGAFALKEGFMSGEILLNLDSEDEGELYIGCAGGIDTVAEFQYENEMTPISHLCFRITVKGLKGGHSGGDIHLGRGNANKILNRFLYQMMTTYQEDFHLYEFNGGNLRNAIPREASAVFSVPEHYKHDIRTALNVFTAEIENELHRVEPDLNILLETEPHRDWSIDSSTSYRLITSLYGCPHGVYAMSQDIPGLVETSTNLASVKMKPENTIRIETSQRSSILSSRDDIATTVRAVFRLAGAQVNWGEGYPGWKPNPDSEILKVAEESYKRLFGVDAKVKAIHAGLECGLFLDKYPALDMISFGPTLTGVHSPDERMHIPSVDKFWKHLLDVLAHIPAKN	soluble

— the DeepSol protein solubility set
